Results on one substance are retold here after patent US9777041B2, “Protein nanofibers from self-assembling pentamers” (New York University, priority 2013, dated 2017).

Series [1] can be described thus: Circular dichroism thermal melts at 222 nm, van't Hoff analysis. Type of series: physicochemical. The settings on record: for Tm: 10 μM protein; for ΔG° (free energy of folding): at 25° C.; for ΔS°: ΔS° = ΔH°/Tm. How it is done: Circular dichroism: Circular dichroism (CD) measurements were conducted on a Jasco J-815 CD spectrometer. Wavelength and temperature scans were conducted with 10 μM (6.3×10^−2 mg/mL) protein concentrations. The wavelength spectrum was measured over a range from 190 to 250 nm with a step size of 1 nm Mean residue ellipticity (MRE) was calculated from raw data according to the procedure described in Gunasekar et al. 2009. Secondary structure analysis of α-helical, β-sheet, and random coil content was calculated with the K2D method using DichroWeb software. Temperature scans of each protein were performed over a range of 20-85° C. with a temperature step of 1° C./min at 222 nm. Scans were also performed at of 2° C./min and 5° C./min to evaluate dependence of thermal melt signatures on scan speed. All measurements were made in duplicates of independently prepared proteins and data represents the average. Thermodynamic properties of wt and Q were determined through analysis of thermal melts. A two-state model was used, where assumptions included monophasic behavior and reversible melting behavior. These assumptions were confirmed experimentally by melting (from 20 to 85° C.) and cooling (from 85 to 20° C.) the proteins. Calculation of thermodynamic parameters including Tm, ΔG°, ΔH°, and ΔS° were performed according to the method described by Greenfield.
Thermodynamic properties were assessed via thermal melt of the proteins at 222 nm. Prior to calculating thermodynamic constants, assumptions of monophasic behavior and melt reversibility were confirmed experimentally for wt and Q at all pHs by melting and cooling proteins (FIGS. 18a-18d). The van't Hoff equation was applied to thermal melts of the proteins in the range of 20-85° C.

Series [2] in a line: Confocal microscopy of protein fibers in the presence of curcumin. Type of series: physicochemical. How it is done:
FIGS. 7a-7c show confocal microscopy of CC, Q54, and COMPcc^S wt, in the presence of curcumin. The mixture of protein to curcumin were all at a ratio of 1:5. […] All different proteins are in 50 mM phosphate buffer, pH 4. Protein and curcumin samples were combined and incubated for 12 hours prior to imaging. […] The width of COMPcc^S wt shown in FIG. 7c was determined to be 12.72 μm. […] Overall, Q54 fibers appeared to be more uniform in width, as well as more robust and consistent in fiber formation.
Confocal microscopy: Samples were imaged using a Leica TCS SP2 AOBS confocal microscope system equipped with argon ion and HeNe lasers. A 63×/1.4 NA oil-immersion objective was used for all of the images. Lab-Tek II chambered #1.5 German coverglass system was used as the imaging slide. Curcumin was excited using the 458 nm line of the argon laser, and images were taken with the detection window set between 465 and 560 nm. The pinhole aperture was set at an Airy value of 1.0, which was equivalent to sampling an ˜500 nm vertical z slice of the fiber, as estimated by the axial resolution, rz,confocal≈1.4λcm n/NA^2 (NA, numerical aperture; n, refractive index; λcm, emission wavelength (525 nm)). Interference contrast images were obtained using the Leica tube optics HC 1×/B apparatus with a focusing Bertrand lens. The 3D reconstructions were constructed using ImageJ 64 1.43 in concert with Amira 5.43, employing the Volren 3D rendering routine.

Series [3] is described as follows: Curcumin binding fluorescence. The settings on record: in the presence of Zn^2+. The text has this:
FIG. 40. Fluorescence of C and Q or with incorporated trifluoroleucine/TFL (C TFL and Q TFL) in the presence of no metal, Ni (II), or Zn (II) and curcumin. An increase in fluorescence indicates structural stability of the protein as it is able to bind with curcumin, the fluorescent probe in this case.

As a reminder, the Tm is the temperature at the midpoint of the melting transition.

Values joined by “and” are separate entries in the source; they are usually repeats but may differ in a detail not shown here. Identical values can stand only once.

Consider “Q: Q54 protein, SEQ ID NO:2, variant of COMPcc; coiled-coil that self-assembles into homopentamers and nanofibers (MRGSHHHHHHGSIEGRVKEITFLKNTAPQMLRELQETNAALQDVRELLRQQSKL)”, for which, in series [1] (across all pH values (4, 8, 10)), the “melting temperatures (Tm)” value is 46.4-63.5 °C. Further, in series [1] (pH 4), the “increase in Tm compared to the parent wt” value came to 7.2 °C, the “ΔH° (van't Hoff enthalpy)” value was -32.3 kcal/mol, the Tm came to 55.3 °C and the “ΔG° (free energy of folding)” value was -3.3 kcal/mol. In series [1] (pH 4), the ΔS° was -97.1 cal/(mol·K). Further, in series [1] (pH 8), the “increase in Tm compared to the parent wt” value stood at 14.7 °C, the “ΔH° (van't Hoff enthalpy)” value was -32.6 kcal/mol, the Tm is 63.5 °C and the “ΔG° (free energy of folding)” value was -3.8 kcal/mol. Further, the ΔS° in series [1] (pH 8) was -96.8 cal/(mol·K). Moreover, in series [1] (pH 10), the “ΔH° (van't Hoff enthalpy)” value is -46.4 kcal/mol, the Tm was determined as 46.4 °C, the “ΔG° (free energy of folding)” value is -3.1 kcal/mol and the ΔS° is -145 cal/(mol·K). Besides, the microfiber diameter in series [2] (in the presence of curcumin (10 μM Q, 50 μM curcumin), pH 4) is 16 μm and 16.0±5.6 μm. In addition, in series [2] (protein:curcumin 1:5, 20 mM protein, 100 mM curcumin, 50 mM phosphate buffer pH 4, 12 hours), the “average width of protein fibers” value turned out to be 16.87±9 μm. Further, the “binding to small molecule (curcumin fluorescence)” value in series [3] was “substantially increase the binding to small molecule”.
